Data: patent publication US20240287484

Experiments:
Conditions in all cases: qPCR; 3 mM MgCl2, 37 C
[1] = system: T1, MG153-28 RT (uncultivated organism (metagenomic))
T1 sequence: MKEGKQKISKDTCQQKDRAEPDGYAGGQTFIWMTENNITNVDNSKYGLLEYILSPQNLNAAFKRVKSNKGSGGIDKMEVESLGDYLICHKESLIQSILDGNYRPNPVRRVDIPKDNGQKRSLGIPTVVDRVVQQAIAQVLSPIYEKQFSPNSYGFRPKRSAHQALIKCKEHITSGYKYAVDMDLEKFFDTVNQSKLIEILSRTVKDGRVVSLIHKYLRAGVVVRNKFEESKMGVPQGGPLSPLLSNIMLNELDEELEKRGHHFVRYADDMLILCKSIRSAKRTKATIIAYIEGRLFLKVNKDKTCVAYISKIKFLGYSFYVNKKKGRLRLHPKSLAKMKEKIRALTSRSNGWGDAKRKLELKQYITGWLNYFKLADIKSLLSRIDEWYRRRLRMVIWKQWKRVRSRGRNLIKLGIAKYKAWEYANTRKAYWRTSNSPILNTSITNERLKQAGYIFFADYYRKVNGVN

[2] = system: T2, MG153-47 RT (uncultivated organism (metagenomic))
T2 sequence: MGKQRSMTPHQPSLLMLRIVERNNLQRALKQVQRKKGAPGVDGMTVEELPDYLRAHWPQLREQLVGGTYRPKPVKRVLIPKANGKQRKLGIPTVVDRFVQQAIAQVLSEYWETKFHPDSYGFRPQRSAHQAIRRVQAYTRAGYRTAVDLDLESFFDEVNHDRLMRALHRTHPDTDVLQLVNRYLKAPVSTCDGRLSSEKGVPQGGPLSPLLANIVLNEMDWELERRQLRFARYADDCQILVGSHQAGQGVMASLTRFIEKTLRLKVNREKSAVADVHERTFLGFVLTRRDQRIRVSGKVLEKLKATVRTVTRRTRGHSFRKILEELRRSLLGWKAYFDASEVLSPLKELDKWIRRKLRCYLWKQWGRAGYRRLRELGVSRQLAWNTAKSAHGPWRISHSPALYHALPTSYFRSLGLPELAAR

[3] = system: T3, MG153-11 RT (uncultivated organism (metagenomic))
T3 sequence: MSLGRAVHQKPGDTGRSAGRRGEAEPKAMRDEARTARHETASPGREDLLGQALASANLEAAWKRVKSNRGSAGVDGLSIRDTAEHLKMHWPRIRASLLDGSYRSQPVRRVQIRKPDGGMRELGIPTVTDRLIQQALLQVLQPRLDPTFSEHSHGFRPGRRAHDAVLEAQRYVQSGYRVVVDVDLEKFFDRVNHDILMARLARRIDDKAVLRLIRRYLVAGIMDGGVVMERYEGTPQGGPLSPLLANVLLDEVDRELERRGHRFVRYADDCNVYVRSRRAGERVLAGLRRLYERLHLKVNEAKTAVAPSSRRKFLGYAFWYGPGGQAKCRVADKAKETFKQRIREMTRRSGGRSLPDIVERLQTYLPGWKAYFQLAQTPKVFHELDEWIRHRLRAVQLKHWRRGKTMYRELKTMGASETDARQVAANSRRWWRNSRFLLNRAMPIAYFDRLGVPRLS

[4] = system: T4, MG153-56 RT (uncultivated organism (metagenomic))
T4 sequence: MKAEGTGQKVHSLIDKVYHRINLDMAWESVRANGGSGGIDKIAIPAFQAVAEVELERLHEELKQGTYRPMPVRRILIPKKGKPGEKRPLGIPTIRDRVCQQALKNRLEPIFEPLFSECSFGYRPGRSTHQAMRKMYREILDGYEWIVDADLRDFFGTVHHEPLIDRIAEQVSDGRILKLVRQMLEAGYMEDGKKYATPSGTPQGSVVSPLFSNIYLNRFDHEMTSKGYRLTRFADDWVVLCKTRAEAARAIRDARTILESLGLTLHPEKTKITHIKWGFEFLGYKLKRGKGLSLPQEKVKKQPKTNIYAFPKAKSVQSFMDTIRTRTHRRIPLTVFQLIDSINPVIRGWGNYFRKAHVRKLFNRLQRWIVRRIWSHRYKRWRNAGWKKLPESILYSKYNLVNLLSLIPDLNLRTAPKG

[5] = system: T5, MG153-19 RT (uncultivated organism (metagenomic))
T5 sequence: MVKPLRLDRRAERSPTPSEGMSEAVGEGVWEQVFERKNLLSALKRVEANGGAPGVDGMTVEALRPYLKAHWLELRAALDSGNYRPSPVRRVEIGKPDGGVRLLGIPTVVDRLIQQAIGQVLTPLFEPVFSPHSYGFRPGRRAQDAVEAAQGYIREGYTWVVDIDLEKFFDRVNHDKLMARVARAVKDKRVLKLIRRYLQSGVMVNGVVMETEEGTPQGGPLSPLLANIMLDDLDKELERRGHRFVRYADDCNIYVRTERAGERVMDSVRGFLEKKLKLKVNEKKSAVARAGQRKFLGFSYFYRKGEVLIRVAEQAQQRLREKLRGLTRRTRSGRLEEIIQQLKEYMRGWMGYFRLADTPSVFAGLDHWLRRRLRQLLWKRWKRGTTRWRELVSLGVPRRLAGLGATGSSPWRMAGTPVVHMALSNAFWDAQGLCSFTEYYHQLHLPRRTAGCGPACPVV

[6] = system: T6, MG153-43 RT (uncultivated organism (metagenomic))
T6 sequence: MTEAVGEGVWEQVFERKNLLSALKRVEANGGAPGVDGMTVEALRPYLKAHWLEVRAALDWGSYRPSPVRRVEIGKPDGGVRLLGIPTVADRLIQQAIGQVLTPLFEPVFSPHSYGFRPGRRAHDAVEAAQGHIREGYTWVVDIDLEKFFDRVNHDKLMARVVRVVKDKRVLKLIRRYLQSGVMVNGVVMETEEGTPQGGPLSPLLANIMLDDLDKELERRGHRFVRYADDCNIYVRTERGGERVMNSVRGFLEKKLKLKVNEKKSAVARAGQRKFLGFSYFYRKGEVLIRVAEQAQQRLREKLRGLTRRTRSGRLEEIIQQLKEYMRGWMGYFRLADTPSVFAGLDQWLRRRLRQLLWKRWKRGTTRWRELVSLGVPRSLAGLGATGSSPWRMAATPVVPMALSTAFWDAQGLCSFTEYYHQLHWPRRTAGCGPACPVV

Measured: activity (fold over background)

200 nt RNA template annealed to DNA primer
> 10: all assays above
